According to US20150359847A1, “METHOD AND COMPOSITION FOR CONFERRING NEUROPROTECTION” (BLOOD SYSTEMS RESEARCH INSTITUTE, priority 2014, published 2015):

Tests used:
[1] = biological target: T1, MMP-2 (Homo sapiens, UniProt P08253); test: SensoLyte Fluorimetric MMP-2 Activity Assay; format: biochemical; conditions: dose response; 1 μg/ml TIMP3
T1 sequence (P08253 110-660): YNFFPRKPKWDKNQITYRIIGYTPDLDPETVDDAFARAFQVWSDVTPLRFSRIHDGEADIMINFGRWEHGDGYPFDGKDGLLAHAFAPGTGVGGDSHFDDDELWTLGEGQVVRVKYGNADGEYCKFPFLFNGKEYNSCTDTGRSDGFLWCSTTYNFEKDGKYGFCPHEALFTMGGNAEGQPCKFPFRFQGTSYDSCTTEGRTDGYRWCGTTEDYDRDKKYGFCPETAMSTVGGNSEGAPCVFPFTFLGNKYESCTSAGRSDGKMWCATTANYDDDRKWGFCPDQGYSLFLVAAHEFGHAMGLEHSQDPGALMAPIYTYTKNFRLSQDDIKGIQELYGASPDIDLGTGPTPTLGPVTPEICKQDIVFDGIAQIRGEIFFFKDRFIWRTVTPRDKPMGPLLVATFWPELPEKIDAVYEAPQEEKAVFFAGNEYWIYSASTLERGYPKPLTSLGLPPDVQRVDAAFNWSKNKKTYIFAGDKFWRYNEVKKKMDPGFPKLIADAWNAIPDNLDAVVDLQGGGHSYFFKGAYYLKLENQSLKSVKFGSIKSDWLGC
Excerpt: SensoLyte Fluorimetric MMP-2 Activity Assay Kit™ (Cat#71151) and SensoLyte Fluorimetric MMP-9 Activity Assay Kit™ (Cat#71155) were purchased from AnaSpec (Fremont, Calif.) and performed per manufacturer's instructions.

[2] = system: mouse model of controlled cortical impact (CCI); test: Morris Water Maze in CCI TBI mice; format: in vivo
Excerpt: The mouse controlled cortical impact (CCI) injury model was used as previously described. In brief, mice were anesthetized with 5% isoflurane and 1:1 O2:N2 mixture. Animals were mounted on a stereotaxic frame and were secured by ear bars and an incisor bar. Anesthesia was maintained with 2.0% isoflurane and 1:1 O2:N2 mixture. A 5-mm-diameter craniotomy was made midway between bregma and lambda on the right side, with the medial edge of the craniotomy 1 mm lateral to midline. Injury was produced using a magnetic impactor mounted at an angle of 110° from the vertical plane. A single impact at a velocity of 4+/−0.2 m/s was used inflict a moderate to severe injury (1.2-1.3 mm impact depth). After injury, the incision was closed. Sham animals underwent identical surgeries except for impact injury. Core body temperature was monitored using a rectal thermometer and maintained at 36.8° C.-37.2° C. with a heating pad throughout the procedure. For treatments, TIMP3 (60.0 μg/kg) or vehicle control (PBS) administration was performed at 2, 24, and 48 hrs after injury via tail vein injections in a total volume of 125 μl. Animal research was performed with approval of the Institutional Animal Care and Use Committee at ISIS Services LLC (San Carlos, Calif., USA). Mice received humane care according to the criteria outlined by the National Research Council's Institute of Laboratory Animal Resources in the “Guide for the Care and Use of Laboratory Animals”. Neurocognitive testing conducted at UT Houston was in compliance with University of Texas Houston Institutional Animal Care and Use Committee.
A modified Morris water maze task was used to assess long-term memory. Mice were trained to find the location of a hidden platform in one day. This was followed by probe at 30 mins following the last trial and another probe 24 hrs later. Mice were given 10 training trials with an inter-trial interval of 15 mins. Each trial was initiated by placing the animal into the water maze at one of four randomly chosen starting positions. The animal was allowed to search for the hidden platform for a period of 1 min, and the time to find the platform recorded. […] At thirty minutes and twenty-four hours following the final training trial, animals were tested in a probe trial in which the platform was removed from the tank and allowed to search for a period of 1 min. Movement within the maze was monitored using a video camera linked to […] software (Ethovision™, Noldus Information Technology, Leesbury, Va.). Measures of memory, including latency to first platform crossing, and number of crossings were recorded.

[3] = system: hippocampal neurons; test: Neurite chamber assay (AXIS axon isolation device); format: cell-based, mouse; conditions: 7 days treatment with TIMP3
Protocol: For AXIS™ Axon Isolation devices, chambers were first sterilized from one side of the groves to the other under flow gradient with 70% ethanol to avoid trapping air in the groves. Afterwards the slides were completely immersed in 70% ethanol for 5 mins. Upon removing the slide from the ethanol bath, chambers were washed twice with PBS under a flow gradient to flush the chambers, the procedure was then repeated with Poly-D-Lysine. Chambers were then incubated with Poly-D-Lysine overnight at 4° C. Prior to plating cells, chambers were flushed with ‘plating media’ (see tissue culture section). Simultaneous plating of the single cell suspension in both wells on side of the groves enabled equilibrium to be obtained and a sufficient number of cell remained in the chamber adjacent to the groves. Hippocampi from 2 pups were used per chamber. Cells were allowed to attach for 4 hrs before excess cells in the wells were detached using the rubber tip from a sterile 1 ml syringe, plating media removed and ‘maintenance media’ with treatments were added. Flow gradients were maintained throughout the culture steps and media exchanges were performed with this in mind.

[4] = long-term probe, TBI+TIMP3 vs TBI alone

B1: TIMP3: Recombinant tissue inhibitor of matrix metalloproteinase-3, a soluble protein released by MSCs, obtained from Amgen Inc. (protein)
chain: CTCSPSHPQDAFCNSDIVIRAKVVGKKLVKEGPFGTLVYTIKQMKMYRGFTKMPHVQYIHTEASESLCGLKLEVNKYQYLLTGRVYDGKMYTGLCNFVERWDQLTLSQRKGLNYRYHLGCNCKIKSCYYLPCFVTSKNECLWTDMLSNFGYPGYQSKHYACIRQKGGYCSWYRGWAPPDKSIINATDP
MMP-2 inhibition (Sensolyte FRET assay) [1]: can fully inhibit | ability to learn the platform location during training ([2]; TBI+TIMP3 vs TBI alone): did not significantly differ | total number of correct platform crossings (Morris Water Maze) ([2]; TIMP3 60 μg/kg IV x3, long-term memory probe 24 hrs after training, days 8-9): 1.9±0.4 | latency to first platform crossing [2, 4]: did not significantly differ | time in the area around the platform (concentric rings) [2, 4]: spent more time in the area around the platform | neurite outgrowth in neurite chamber [3]: increased neurite outgrowth
